Assay [1] addresses T1, p116 Jak3 (endogenous, human thymocytes) (human, UniProt P52333 1-1124, limits assumed).
T1 sequence (looked up): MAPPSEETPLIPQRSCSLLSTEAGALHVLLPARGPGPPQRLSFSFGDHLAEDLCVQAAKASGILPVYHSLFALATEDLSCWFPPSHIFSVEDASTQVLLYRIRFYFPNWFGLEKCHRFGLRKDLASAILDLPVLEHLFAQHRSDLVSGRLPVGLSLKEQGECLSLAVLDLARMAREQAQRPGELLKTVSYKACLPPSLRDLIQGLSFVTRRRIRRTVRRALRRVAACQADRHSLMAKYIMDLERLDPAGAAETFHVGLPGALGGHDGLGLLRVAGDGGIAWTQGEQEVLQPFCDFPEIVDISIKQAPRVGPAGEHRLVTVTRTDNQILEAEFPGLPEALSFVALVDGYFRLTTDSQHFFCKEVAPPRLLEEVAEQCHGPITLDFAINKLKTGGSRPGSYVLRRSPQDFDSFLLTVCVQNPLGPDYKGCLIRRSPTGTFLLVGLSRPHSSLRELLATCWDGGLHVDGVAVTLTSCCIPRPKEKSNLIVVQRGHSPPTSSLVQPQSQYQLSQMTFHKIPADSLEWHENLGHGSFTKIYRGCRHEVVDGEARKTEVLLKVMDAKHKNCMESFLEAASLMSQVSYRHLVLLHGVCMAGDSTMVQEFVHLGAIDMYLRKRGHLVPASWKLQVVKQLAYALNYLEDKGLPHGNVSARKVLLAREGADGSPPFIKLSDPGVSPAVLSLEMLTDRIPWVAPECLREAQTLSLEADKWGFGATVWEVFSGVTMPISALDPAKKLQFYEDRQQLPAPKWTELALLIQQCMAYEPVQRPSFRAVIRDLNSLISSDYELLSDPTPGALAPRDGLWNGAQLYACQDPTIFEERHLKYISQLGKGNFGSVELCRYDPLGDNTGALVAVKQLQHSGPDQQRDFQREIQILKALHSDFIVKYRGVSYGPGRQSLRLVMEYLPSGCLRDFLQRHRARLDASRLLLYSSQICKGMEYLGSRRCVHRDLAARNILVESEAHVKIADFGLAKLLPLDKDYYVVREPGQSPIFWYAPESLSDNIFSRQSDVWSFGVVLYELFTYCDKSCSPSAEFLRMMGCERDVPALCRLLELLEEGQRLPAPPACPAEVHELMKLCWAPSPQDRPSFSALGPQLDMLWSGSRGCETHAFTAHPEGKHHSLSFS
Description: western blot of Lyp immunoprecipitates from anti-CD3 stimulated human thymocytes. As for the experimental part:
(§1) (A) Lyp immunoprecipitates from thymocytes (80×10⁶ cells) stimulated with anti-CD3 were blotted with antiphsophotyrosine. […] Lyp protein loading was quantitated by anti-Lyp western blot after stripping. […] (C) Lyp1 was transfected into COS-7 cells and Cbl immunoprecipitates prepared from these and untransfected cells. Western blotting was performed with Lyp antibodies. The position of Lyp is indicted by an arrow. Cbl immunoprecipitates were also prepared and blotted with anti-phosphotyrosine (D), and then anti-Cbl after stripping.
(§2) One of the earliest events following TCR stimulation of T cells is the induction of tyrosine phosphorylation. In order to determine whether Lyp played a role in TCR signalling, human thymocytes were stimulated with anti-CD3 for various periods of time, Lyp immunoprecipitated and blotted with anti-phosphotyrosine. […] Once activated, the phosphorylation level of this protein remained constant over a period of 20 minutes. […] This interaction was also observed in the mature T cell line Jurkat (not shown) and further confirmed by transfection of Lyp1 into COS-7 cells and examining its association with the endogenous Cbl protein (FIG. 13C).
Background: In western blotting, separated proteins are transferred to a membrane and probed.

A further assay concerns the target p125Fak (human, UniProt Q05397 2-1052, limits assumed). The description is as above. As for the experimental part:
as §1, §2

Sequence of p125Fak (Q05397 2-1052 limits assumed): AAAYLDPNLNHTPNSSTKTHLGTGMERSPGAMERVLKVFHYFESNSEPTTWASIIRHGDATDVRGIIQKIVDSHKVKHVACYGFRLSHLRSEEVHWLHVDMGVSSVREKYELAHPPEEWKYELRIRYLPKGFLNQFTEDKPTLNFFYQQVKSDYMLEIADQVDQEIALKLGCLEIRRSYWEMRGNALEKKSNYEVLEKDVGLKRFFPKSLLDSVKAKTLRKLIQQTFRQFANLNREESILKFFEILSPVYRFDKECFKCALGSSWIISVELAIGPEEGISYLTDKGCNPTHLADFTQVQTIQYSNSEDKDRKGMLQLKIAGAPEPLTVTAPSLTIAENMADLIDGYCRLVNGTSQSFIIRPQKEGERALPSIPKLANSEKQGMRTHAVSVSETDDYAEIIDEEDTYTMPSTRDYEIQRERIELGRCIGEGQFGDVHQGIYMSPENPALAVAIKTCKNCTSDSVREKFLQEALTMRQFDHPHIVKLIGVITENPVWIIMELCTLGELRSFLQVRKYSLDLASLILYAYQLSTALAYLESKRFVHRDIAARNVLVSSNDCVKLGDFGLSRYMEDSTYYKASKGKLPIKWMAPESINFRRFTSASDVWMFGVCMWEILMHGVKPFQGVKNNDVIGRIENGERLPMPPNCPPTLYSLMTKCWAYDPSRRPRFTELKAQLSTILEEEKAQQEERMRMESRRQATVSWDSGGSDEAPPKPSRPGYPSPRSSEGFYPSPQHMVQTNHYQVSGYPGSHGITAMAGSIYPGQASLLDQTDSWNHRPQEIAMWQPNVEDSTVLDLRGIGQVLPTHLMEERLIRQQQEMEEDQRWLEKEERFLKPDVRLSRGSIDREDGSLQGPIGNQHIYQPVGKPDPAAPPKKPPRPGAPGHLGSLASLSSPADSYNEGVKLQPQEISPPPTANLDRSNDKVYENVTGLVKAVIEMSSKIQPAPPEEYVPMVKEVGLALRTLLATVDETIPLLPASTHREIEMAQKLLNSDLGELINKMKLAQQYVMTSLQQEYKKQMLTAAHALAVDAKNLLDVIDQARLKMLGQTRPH

B1: Lyp1 (human lymphoid protein tyrosine phosphatase, 105 kD) (enzyme)
chain: MDQREILQKFLDEAQSKKITKEEFANEFLKLKRQSTKYKADKTYPTTVAENAKNIKKNRYKDILPYDYSRVELSLITSDEDSSYINANFIKGVYGPKAYIATQGPLSTTLLDFWRMIWEYSVLIIVMACMEYEMGKKKCERYWAEPGEMQLEFGPFSVSCEAEKRKSDYIIRTLKVKFNSETRTIYQFHYKNWPDHDVPSSIDPILELIWDVRCYQEDDSVPICIHCSAGCGRTGVICAIVDYTWMLLKDGIIPENFSVFSLIREMRTQRPSLVQTQEQYELVYNAVLELFKRQMDVIRDKHSGTESQAKHCIPEKNHTLQADSYSPNLPKSTTKAAKMMNQQRTKMEIKESSSFDFRTSEISAKEELVLHPAKSSTSFDFLELNYSFDKNADTTMKWQTKAFPIVGEPLQKHQSLDLGSLLFEGCSNSKPVNAAGRYFNSKVPITRTKSTPFELIQQRETKEVDSKENFSYLESQPHDSCFVEMQAQKVMHVSSAELNYSLPYDSKHQIRNASNVKHHDSSALGVYSYIPLVENPYFSSWPPSGTSSKMSLDLPEKQDGTVFPSSLLPTSSTSLFSYYNSHSSLSLNSPTNISSLLNQESAVLATAPRIDDEIPPPLPVRTPESFIVVEEAGEFSPNVPKSLSSAVKVKIGTSLEWGGTSEPKKFDDSVILRPSKSVKLRSPKSELHQDRSSPPPPLPERTLESFFLADEDCMQAQSIETYSTSYPDTMENSTSSKQTLKTPGKSFTRSKSLKILRNMKKSICNSCPPNKPAESVQSNNSSSFLNFGFANRFSKPKGPRNPPPTWNI
notes: also called native Lyp1; pcDNA3-Lyp1
Take B1: the binding result (in assay [1]; with p125Fak) was “no binding” each time.

For the origin of these results see patent publication US20040006777A1 (HSC RESEARCH AND DEVELOPMENT LIMITED PARTNERSHIP, published 2004).
